Drawing on paper doi:10.1101/2021.05.06.442885, this text covers stoichiometry N for one substance.

This assay concerns the target human Xkr8 (hXkr8), from hXkr8-TH-mGFP after TEV cleavage (human) (UniProt Q9H6D3). Nature of the assay: cryo-EM structure.
Sequence of UniProt Q9H6D3 (Q9H6D3 whole entry): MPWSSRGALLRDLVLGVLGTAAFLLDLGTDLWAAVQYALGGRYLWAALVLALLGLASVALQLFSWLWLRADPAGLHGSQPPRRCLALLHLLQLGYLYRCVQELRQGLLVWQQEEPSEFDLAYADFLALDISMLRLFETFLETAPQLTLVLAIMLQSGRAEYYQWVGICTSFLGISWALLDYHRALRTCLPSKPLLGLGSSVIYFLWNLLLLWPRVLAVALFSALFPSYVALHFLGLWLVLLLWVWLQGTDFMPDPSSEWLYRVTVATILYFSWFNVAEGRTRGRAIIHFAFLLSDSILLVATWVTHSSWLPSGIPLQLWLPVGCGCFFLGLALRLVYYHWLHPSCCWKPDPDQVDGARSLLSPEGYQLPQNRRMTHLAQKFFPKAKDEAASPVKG

The term stoichiometry N denotes the number of molecules, sites or subunits per partner or assembly. In turn, “hBSGΔ (human basigin lacking Ig-like domain 1, N152Q/N186Q, C-terminal FLAG) (domain or fragment)” yielded a stoichiometry N of 1.
